{
  "source": "paper PMC8266594",
  "about": "(Nucleic Acids Research, 2021)",
  "data": [
    {"biological_target": "the molecule itself", "test": "SAXS", "values": [
      {"protein": "RnlAΔ1–91 (TBP2-HEPN) truncated RnlA, N-terminally His-tagged (domain or fragment, Escherichia coli, UniProt P52129 92-357, looked up) INPAEFEQVNMVLQGFVETSVLPVLELSADESHIEFREHSRNAHTVVWKIISTSYQDELTVSLHITTGKLQIQGRPLSCYRVFTFNLAALLDLQGLEKVLIRQEDGKANIVQQEVARTYLQTVMADAYPHLHVTAEKLLVSGLCVKLAAPDLPDYCMLLYPELRTIEGVLKSKMSGLGMPVQQPAGFGTYFDKPAAHYILKPQFAATLRPEQINIISTAYTFFNVERHSLFHMETVVDASRMISDMARLMGKATRAWGIIKDLYIV", "stoichiometry N": 2},
      {"protein": "His-RnlA (wild-type RnlA toxin, N-terminally His-tagged) (enzyme) MTIRSYKNLNLVRANIETESRQFIENKNYSIQSIGPMPGSRAGLRVVFTRPGVNLATVDIFYNGDGSTTIQYLTGANRSLGQELADHLFETINPAEFEQVNMVLQGFVETSVLPVLELSADESHIEFREHSRNAHTVVWKIISTSYQDELTVSLHITTGKLQIQGRPLSCYRVFTFNLAALLDLQGLEKVLIRQEDGKANIVQQEVARTYLQTVMADAYPHLHVTAEKLLVSGLCVKLAAPDLPDYCMLLYPELRTIEGVLKSKMSGLGMPVQQPAGFGTYFDKPAAHYILKPQFAATLRPEQINIISTAYTFFNVERHSLFHMETVVDASRMISDMARLMGKATRAWGIIKDLYIV", "stoichiometry N": 2},
      {"protein": "R255A RnlA, N-terminally His-tagged (enzyme, Escherichia coli, UniProt P52129 1-357, looked up) MTIRSYKNLNLVRANIETESRQFIENKNYSIQSIGPMPGSRAGLRVVFTRPGVNLATVDIFYNGDGSTTIQYLTGANRSLGQELADHLFETINPAEFEQVNMVLQGFVETSVLPVLELSADESHIEFREHSRNAHTVVWKIISTSYQDELTVSLHITTGKLQIQGRPLSCYRVFTFNLAALLDLQGLEKVLIRQEDGKANIVQQEVARTYLQTVMADAYPHLHVTAEKLLVSGLCVKLAAPDLPDYCMLLYPELATIEGVLKSKMSGLGMPVQQPAGFGTYFDKPAAHYILKPQFAATLRPEQINIISTAYTFFNVERHSLFHMETVVDASRMISDMARLMGKATRAWGIIKDLYIV", "stoichiometry N": 2},
      {"protein": "D245R RnlA, N-terminally His-tagged (enzyme, Escherichia coli, UniProt P52129 1-357, looked up) MTIRSYKNLNLVRANIETESRQFIENKNYSIQSIGPMPGSRAGLRVVFTRPGVNLATVDIFYNGDGSTTIQYLTGANRSLGQELADHLFETINPAEFEQVNMVLQGFVETSVLPVLELSADESHIEFREHSRNAHTVVWKIISTSYQDELTVSLHITTGKLQIQGRPLSCYRVFTFNLAALLDLQGLEKVLIRQEDGKANIVQQEVARTYLQTVMADAYPHLHVTAEKLLVSGLCVKLAAPDLPRYCMLLYPELRTIEGVLKSKMSGLGMPVQQPAGFGTYFDKPAAHYILKPQFAATLRPEQINIISTAYTFFNVERHSLFHMETVVDASRMISDMARLMGKATRAWGIIKDLYIV", "stoichiometry N": 2}
    ]}
  ]
}
